The values below come from patent publication US20240228626A1 (IMMUNORIZON, published 2024).

The target of assay [1] is NKG2D on primary NK cells purified from healthy donor's PBMCs (human) (UniProt P26718). Description: cell-based or functional assay.
For assay [2], the target named is cyno-NKG2D/Dap10 over-expressed in CHO cells (cyno) (UniProt P61252). Description: FACS on CHO cells over expressing cynoNKG2D.
Assay [3] has as its target T1, NKG2D on primary NK cells purified from healthy donor's PBMCs (human, UniProt P26718 1-216).
T1 construct: whole, on cells
T1 sequence (looked up): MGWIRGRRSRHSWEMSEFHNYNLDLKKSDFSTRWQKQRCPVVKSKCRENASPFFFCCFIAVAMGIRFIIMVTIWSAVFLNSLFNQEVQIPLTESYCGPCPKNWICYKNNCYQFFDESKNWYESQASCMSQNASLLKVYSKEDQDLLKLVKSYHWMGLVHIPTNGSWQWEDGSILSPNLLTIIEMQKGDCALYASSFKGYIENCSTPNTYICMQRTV
Description: FACS on primary NK cells, two concentrations.

In assay [4] the target is T1, NKG2D on primary NK cells purified from …. Description: FACS on cells.
Assay [5] has as its target recombinant human NKG2D-ECD-Fc (extracellular domain of NKG2D fused to human Fc) (human) (UniProt P26718). Description: ELISA on coated NKG2D-ECD-Fc. For orientation: An ELISA detects its analyte on a solid surface through an enzyme-linked reagent.
Assay [6] deals with T1, NKG2D on primary NK cells purified from …. Description: FACS on primary NK cells, 100 nM and 10 nM.

Sequence of cyno-NKG2D/Dap10 over-expressed in CHO cells (cyno) (P61252 whole entry): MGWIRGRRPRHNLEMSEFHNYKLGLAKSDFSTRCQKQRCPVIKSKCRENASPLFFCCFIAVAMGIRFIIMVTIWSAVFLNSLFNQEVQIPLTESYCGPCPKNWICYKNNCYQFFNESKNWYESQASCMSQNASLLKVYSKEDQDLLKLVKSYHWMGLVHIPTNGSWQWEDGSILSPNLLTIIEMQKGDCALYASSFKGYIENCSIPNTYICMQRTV

B1: IM1091 CD3/5T4/NKG2D mut(VL-VH) (protein, part only; not given: anti-CD3 Fab, anti-5T4 scFv, linkers, not shown: another chain or arm of the molecule; small tags and cut ends)
VL: QSALTQPASVSGSPGQSITISCSGSSSNIGNNAVNWYQQLPGKAPKLLIYADDLLPSGVSDRFSGSKSGTSAFLAISGLQSEDEADYYCAAWDDSLNGPVFGGGTKLTVL
VH: QVQLVESGGGLVKPGGSLRLSCAASGFTFSSYGMHWVRQAPGKGLEWVAFIRYDGSNKYYADSVKGRFTISRDNSKNTLYLQMNSLRAEDTAVYYCAKDAGEGDGTYFDYWGQGTTVTVSS
B1: the activation as measured by CD107a MFI on CD56^+gated NK cells population in assay [1] lay in the range of 35 to 40%.

B2: IM1250 CD3x5T4x NKG2D-cl-19 (L-H) (protein, part only; not given: anti-CD3 Fab, anti-5T4 scFv, linkers, not shown: another chain or arm of the molecule; small tags and cut ends)
VL: DILLTQSPAILSVSPGERVSFSCRASQSIGTSIHWYQQRTNVSPRLLIKYASESISGIPSRFSGSGSGTDFTLSINNVESEDIADYYCQHSNRWPLTFGAGTKLELK
VH: QVQLKESGPGLVAPSQSLSITCTVSGFSLTSYAISWFRQPPGKGLECLGVIWTGGGTNYNSVFKSRLSIIKDNSKSQVFLKMNSLQTDDTARYYCARKGDEGYWGYFDVWGTGTTVTVSS
As a reminder, the EC50 is the concentration giving half of the maximal effect. As for B2, in assay [2], the EC50 was determined as 2.3 nM.

B3: mAb019 (antibody, V domains shown)
VH: B2 VH
VL: B2 VL
notes: Mouse hybridoma mAb, protein A purified; also called IM, NKG2D mouse hybridoma cl- 19; NKG2D-cl-19
In the case of B3, in assay [3], the binding result was “binds”.

B4: IM1246 CD3x5T4x NKG2D-cl-9 (L-H) (protein, part only; not given: anti-CD3 Fab, anti-5T4 scFv, linkers, not shown: another chain or arm of the molecule; small tags and cut ends)
VL: DVLMTQTPLSLPVSLGDQASISCRSSQSIVHTNGNTYLEWYLQKPGQSPKLLIYRVFNRFSGVPDRFSGSGSGTEFTLKISRVEAEDLGVYYCFQGSHVPFTFGAGTKLELK
VH: EVKLLQSGGGLVQPGGSLKLSCAASGIDLSRYWMSWVRRAPGKGLEWIGEINPDSSTINYAPSLKDKFIISRDNAKNTLSLQMRKVRSEDTALYFCIRRRYYGSSYWYFDVWGTGTTVTVSS
In assay [2], B4 gave an EC50 of 15 nM.

B5: mAb009 (antibody, V domains shown)
VH: B4 VH
VL: B4 VL
notes: Mouse hybridoma mAb, protein A purified; also called IM, NKG2D mouse hybridoma cl- 9; NKG2D-cl-9
Take B5: the binding result in assay [4] is “binds”.

B6: IM1247 CD3x5T4x NKG2D-cl-9 (H-L) (protein, part only; not given: anti-CD3 Fab, anti-5T4 scFv, linkers, not shown: another chain or arm of the molecule; small tags and cut ends)
VH: B4 VH
VL: B4 VL
Consider B6, for which, in assay [2], the EC50 was determined as 30 nM.

B7: IM1244 CD3x5T4x NKG2D-cl-1 (L-H) (protein, part only; not given: anti-CD3 Fab, anti-5T4 scFv, linkers, not shown: another chain or arm of the molecule; small tags and cut ends)
VL: DIVLTQSPASLAVSLGQRAIISCKASQSVSFAGSNLMHWYQQKPGQQPKLLIYRASNLEVGVPTRFSGSGSGTDFTLNIHPVDEDDAATYYCQQSREYPFTFGSGTKLEIK
VH: EVQLQQSGPELVKPGASVKISCKASAFNFTSYYLHWVKQGPGQGLEWIGWIYPGSGDTKYNEKFKGKATLTADTSSSAANMKLSSLTSEDSAVYYCARNRIFDSYYVDSMDYWGQGTSVTVSS
Take B7: the EC50 in assay [2] was 21 nM; in assay [5] it was 2.6 nM.

B8: mAb001 (antibody, V domains shown)
VH: B7 VH
VL: B7 VL
notes: Mouse hybridoma mAb, protein A purified; also called IM, NKG2D mouse hybridoma cl- 1; NKG2D-cl-1
With B8, the binding result in assay [6] is “binds”.

B9: IM1245 CD3x5T4x NKG2D-cl-1 (H-L) (protein, part only; not given: anti-CD3 Fab, anti-5T4 scFv, linkers, not shown: another chain or arm of the molecule; small tags and cut ends)
VH: B7 VH
VL: B7 VL
On to B9, for which the EC50 in assay [2] was found to be 13 nM; in assay [5], 1.1 nM.

B10: IM1248 CD3x5T4x NKG2D-cl-10 (L-H) (protein, part only; not given: anti-CD3 Fab, anti-5T4 scFv, linkers, not shown: another chain or arm of the molecule; small tags and cut ends)
VL: DIVLTQSPASLAMSLGKRATISCRASESVSIMGTNLINWYQQKLGQPPKLLIYHASNLETGVPARFSGSGSRTDFTLTIDPVEEDDVAVYYCLQGRKIPRTFGGGTKLEIK
VH: QVQLQQPGAELVKPGASVKLSCKASGYTFTTYWIQWIKQRPGQGLEWIGEIDPSDIFTNYNQKFKGKATLTVDTSSSTAYMQLSSLTSEDSAVYYCARGVYDGYYVGYFDVWGTGTTVTVSS
In the case of B10, the values for the EC50 in assay [2] and in assay [5] were 5.9 nM and 1.7 nM, respectively.

B11: IM1249 CD3x5T4x NKG2D-cl-10 (H-L) (protein, part only; not given: anti-CD3 Fab, anti-5T4 scFv, linkers, not shown: another chain or arm of the molecule; small tags and cut ends)
VH: B10 VH
VL: B10 VL
Turning to B11, the figures for the EC50 in assay [2] and in assay [5] were 5.3 nM and 0.7 nM, respectively.

B12: mAb010 (antibody, V domains shown)
VH: B10 VH
VL: B10 VL
notes: Mouse hybridoma mAb, protein A purified; also called IM, NKG2D mouse hybridoma cl- 10; NKG2D-cl-10
For the molecule B12, the binding result in assay [6] was “binds”.
